# Test results: US20190330316A1 (published 2019)
# Biological target: recombinant human tau (human, UniProt P10636 1-383)
# Test: SPR
# Chain of recombinant human tau (P10636 other isoform, or with tags, fused parts or gaps): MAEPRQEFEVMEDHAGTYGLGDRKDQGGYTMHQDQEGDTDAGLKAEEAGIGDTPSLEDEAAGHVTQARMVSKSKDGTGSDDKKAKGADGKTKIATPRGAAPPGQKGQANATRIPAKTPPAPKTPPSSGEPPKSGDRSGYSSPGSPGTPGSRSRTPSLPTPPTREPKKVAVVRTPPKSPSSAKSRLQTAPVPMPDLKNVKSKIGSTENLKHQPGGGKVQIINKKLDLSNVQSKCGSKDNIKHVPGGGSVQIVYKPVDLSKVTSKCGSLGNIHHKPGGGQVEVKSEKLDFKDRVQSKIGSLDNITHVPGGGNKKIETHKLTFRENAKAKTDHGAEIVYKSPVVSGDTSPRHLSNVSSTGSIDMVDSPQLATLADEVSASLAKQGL
row,Binder,Kd
1,"hu16G7VHv2b/hu16G7VLv2 (antibody, V domains shown) VH: EVQLVQSGAEVVKPGASVKVSCKASGYTFTSSWIHWVRQRPGQGLEWIGEIYPNSGNTNYNEKFKGRVTLTRDISISTAYMELSRLTSDDTAVYYCARLGWLIPLDYWGQGTTVTVSS VL: DIVLTQSPSSLAVSVGERATISCKSSQSLLDGNDQKNYLAWYQQKPGQSPKLLIYWASTRESGVPDRFSGSGSGTDFTLTISSLQAEDVAVYYCQQFYDYPWTFGGGTKLEIKR",0.303 nM
2,"hu16G7VHv7/hu16G7VLv2 (antibody, V domains shown) VH: EVQLVQPGAEVKKPGASVKVSCKASGYTFTSSWIHWVRQAPGQGLEWMGEIYPNSGNTNYNEKFKGRVTMTVDISISTAYMELSRLRSDDTAVYYCARLGWLIPLDYWGQGTTVTVSS VL: DIVLTQSPSSLAVSVGERATISCKSSQSLLDGNDQKNYLAWYQQKPGQSPKLLIYWASTRESGVPDRFSGSGSGTDFTLTISSLQAEDVAVYYCQQFYDYPWTFGGGTKLEIKR",0.293 nM

# Stronger by Kd, values ahead:
row,Kd,Binder
1,0.187 nM,"chimeric 16G7 antibody (antibody, V domains shown) VH: QVQLQQPGSVLVRPGASVKLSCKASGYTFTSSWIHWAKQRPGQGLEWIGEIYPNSGNTNYNEKFKGKATLTVDISSSTAYVDLTSLTSEDSAVYYCARLGWLIPLDYWGQGTTLIVSS VL: DIVLSQSPSSLAVSVGEKVTMSCKSSQSLLDGNDQKNYLAWYQQKPGQSPKLLMYWASTRESGVPDRFTGSGSGTDFTLTISSLKAEDLAVYYCQQFYDYPWTFGGGTKLEIKR"
2,0.277 nM,"hu16G7VHv2a/hu16G7VLv2 (antibody, V domains shown) VH: EVQLVQSGAEVVKPGASVKVSCKASGYTFTSSWIHWVRQRPGQGLEWIGEIYPNSGNTNYNEKFKGKATLTVDISISTAYMELSRLTSDDTAVYYCARLGWLIPLDYWGQGTTVTVSS VL: DIVLTQSPSSLAVSVGERATISCKSSQSLLDGNDQKNYLAWYQQKPGQSPKLLIYWASTRESGVPDRFSGSGSGTDFTLTISSLQAEDVAVYYCQQFYDYPWTFGGGTKLEIKR"
